Target: the molecule itself
Assay: SEC; SEC-cleaned No TAG hHv1 injected at several concentrations on an ENrich SEC 650 column in Buffer-H2 (50 mM Tris, 150 mM NaCl, 12 mM Anz3-12, pH 8.0); compared with a run in denaturing buffer (50 mM Tris, pH 8.0, 150 mM NaCl, 0.2% SDS); Ex/Em = 280/350 nm

B1: hHv1-Cysless (His-EK-hHv1-C107A-C249A), human voltage-gated proton channel (natural protein, UniProt Q96D96 1-273, looked up)
chain: MATWDEKAVTRRAKVAPAERMSKFLRHFTVVGDDYHAWNINYKKWENEEEEEEEEQPPPTPVSGEEGRAAAPDVAPAPGPAPRAPLDFRGMLRKLFSSHRFQVIIIALVVLDALLVLAELILDLKIIQPDKNNYAAMVFHYMSITILVFFMMEIIFKLFVFRLEFFHHKFEILDAVVVVVSFILDIVLLFQEHQFEALGLLILLRLWRVARIINGIIISVKTRSERQLLRLKQMNVQLAAKIQHLEFSASEKEQEIERLNKLLRQHGLLGEVN
notes: human voltage-gated proton channel (hHv1), full-length, with C107A and C249A (Cysless); Construct name His-EK-hHv1 in pET15-b; 'EK' between the His tag and hHv1 is probably an enterokinase site (surmised); no cleavage step is described; also called No TAG; control; source: E. coli BL21-Gold(DE3), purified (Ni-NTA in Anzergent 3-12, FSEC)
stoichiometry N: 2
